# Changes are numbered by the printed parent chain.
# T1: mouse Notch1 (EGF6-13, residues 221-526), biotinylated (mouse, UniProt Q01705 221-526, Biotinylated in vitro by BirA at the C-terminal BAP-tag (tag not in the letters).)
# T1 construct: Immobilised on a streptavidin chip for SPR; also called mNotch1 EGF6-13; mNotch1 (6-13)
# T1 sequence: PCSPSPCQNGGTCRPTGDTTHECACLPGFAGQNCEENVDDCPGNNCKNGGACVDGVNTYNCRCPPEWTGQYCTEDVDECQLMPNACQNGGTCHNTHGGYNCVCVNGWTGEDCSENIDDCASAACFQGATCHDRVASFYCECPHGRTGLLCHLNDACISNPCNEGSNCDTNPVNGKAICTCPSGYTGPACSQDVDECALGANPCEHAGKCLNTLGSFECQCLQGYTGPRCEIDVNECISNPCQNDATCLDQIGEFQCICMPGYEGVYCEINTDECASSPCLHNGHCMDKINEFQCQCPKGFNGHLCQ
# B1: WT DLL4 (N-EGF5, residues 27-400), C-terminally biotinylated (ligand)
# chain: SGVFQLQLQEFINERGVLASGRPCEPGCRTFFRVCLKHFQAVVSPGPCTFGTVSTPVLGTNSFAVRDDSSGGGRNPLQLPFNFTWPGTFSLIIEAWHAPGDDLRPEALPPDALISKIAIQGSLAVGQNWLLDEQTSTLTRLRYSYRVICSDNYYGDNCSRLCKKRNDHFGHYVCQPDGNLSCLPGWTGEYCQQPICLSGCHEQNGYCSKPAECLCRPGWQGRLCNECIPHNGCRHGTCSTPWQCTCDEGWGGLFCDQDLNYCTHHSPCKNGATCSNSGQRSYTCTCRPGYTGVDCELELSECDSNPCRNGGSCKDQEDGYHCLCPPGYYGLHCEHSTLSCADSPCFNGGSCRERNQGANYACECPPNFTGSNCEGLNDIFEAQKIEWHE
# modifications: biotin on the C-terminal BAP-tag (BirA ligase)
# B2: DLL4^MAX (N-EGF5, residues 27-400), C-terminally biotinylated (ligand)
# chain: B1 chain with G2S, F81L, I117F, H168Y, L180P, N231P, T245L, F254Y, S275R, Q279P
# modifications: biotin on the C-terminal BAP-tag (BirA ligase)
# notes: Used coupled to streptavidin (plates, beads, or as tetramers for cell staining); also called biotinylated Delta^MAX; C-terminally anchored Delta^MAX; not shown: His-tag
# B3: human wild-type DLL4 (N-EGF5, residues 27-400), non-biotinylated (ligand)
# chain: SGVFQLQLQEFINERGVLASGRPCEPGCRTFFRVCLKHFQAVVSPGPCTFGTVSTPVLGTNSFAVRDDSSGGGRNPLQLPFNFTWPGTFSLIIEAWHAPGDDLRPEALPPDALISKIAIQGSLAVGQNWLLDEQTSTLTRLRYSYRVICSDNYYGDNCSRLCKKRNDHFGHYVCQPDGNLSCLPGWTGEYCQQPICLSGCHEQNGYCSKPAECLCRPGWQGRLCNECIPHNGCRHGTCSTPWQCTCDEGWGGLFCDQDLNYCTHHSPCKNGATCSNSGQRSYTCTCRPGYTGVDCELELSECDSNPCRNGGSCKDQEDGYHCLCPPGYYGLHCEHSTLSCADSPCFNGGSCRERNQGANYACECPPNFTGSNCEHHHHHHHH
# B4: DLL4.v1 (N-EGF5), non-biotinylated (ligand)
# chain: B3 chain with G2S, F81L, I117F, H168Y, L180P
# notes: also called human DLL4 with the five E12 mutations (Site 1+Site 2)
# Columns and labels:
# [1] = target: T2, Notch1 on CHO-K1 N1-Gal4 fluorescent reporter cells (UniProt P46531 19-2555, limits assumed); test: cell-based or functional assay
# [2] = target: Notch1 on U2OS hNotch1-Gal4 luciferase reporter cells (human, UniProt P46531 19-2555); test: cell-based or functional assay
# [3] = target: Notch2 on U2OS Notch2-Gal4 luciferase reporter cells (human, UniProt Q04721 26-2471); test: cell-based or functional assay
# [4] = target: Notch3 on U2OS Notch3-Gal4 luciferase reporter cells (human, UniProt Q9UM47 40-2321); test: cell-based or functional assay
# [5] = target: T2, Notch1 on CHO-K1 N1-Gal4 fluorescent …; test: flow cytometry, ligand tetramers on Notch1-overexpressing CHO-K1 N1-Gal4 cells
# [6] = target: T1, mouse Notch1 (EGF6-13, residues …); test: SPR steady-state binding isotherm, biotinylated mNotch1 (EGF6-13) on a streptavidin chip, DLL4 variant as analyte, response normalized to the maximum (100%)
# Source text: Extended Data FIG. 5. Quantitation of mNotch1 binding to DLL4 variants, ligand adsorption, and Notch surface expression. a, SPR binding isotherms were fitted to a 1:1 binding model to determine the binding affinity between mNotch1 (6-13) and each DLL4 variant. b, Determination of plate adsorption for WT DLL4 and Delta^MAX by ELISA. Data represent mean values±s.d. of three biological replicates. c, Binding assay of WT DLL4 and Delta^MAX tetramers to Notch1 overexpressing CHO-K1 N1-Gal4 cells was measured by flow cytometry. Data represent mean values±s.d. of three biological replicates. d, The level of Notch1 expression on the surface of cell lines used in this study was determined by flow cytometry. Data represent mean values±s.d. of three biological replicates. e, Percentage of CD8⁺ T cells expressing Notch1 (upper graph) and Notch2 (bottom graph) on cell surface determined by flow cytometry after stimulation with K32-WT DLL4, K32-Delta^MAX, or K32 for 96 hours. Data represent mean values±s.e.m. of three biological replicates. Delta^MAX statistics are referred to WT DLL4. *P<0.05, ****P<0.0001 (Two-way ANOVA).
# Equilibrium dissociation constants were determined by surface plasmon resonance using a Biacore T200 instrument (GE Healthcare). […]
# T2 sequence (P46531 19-2555 limits assumed): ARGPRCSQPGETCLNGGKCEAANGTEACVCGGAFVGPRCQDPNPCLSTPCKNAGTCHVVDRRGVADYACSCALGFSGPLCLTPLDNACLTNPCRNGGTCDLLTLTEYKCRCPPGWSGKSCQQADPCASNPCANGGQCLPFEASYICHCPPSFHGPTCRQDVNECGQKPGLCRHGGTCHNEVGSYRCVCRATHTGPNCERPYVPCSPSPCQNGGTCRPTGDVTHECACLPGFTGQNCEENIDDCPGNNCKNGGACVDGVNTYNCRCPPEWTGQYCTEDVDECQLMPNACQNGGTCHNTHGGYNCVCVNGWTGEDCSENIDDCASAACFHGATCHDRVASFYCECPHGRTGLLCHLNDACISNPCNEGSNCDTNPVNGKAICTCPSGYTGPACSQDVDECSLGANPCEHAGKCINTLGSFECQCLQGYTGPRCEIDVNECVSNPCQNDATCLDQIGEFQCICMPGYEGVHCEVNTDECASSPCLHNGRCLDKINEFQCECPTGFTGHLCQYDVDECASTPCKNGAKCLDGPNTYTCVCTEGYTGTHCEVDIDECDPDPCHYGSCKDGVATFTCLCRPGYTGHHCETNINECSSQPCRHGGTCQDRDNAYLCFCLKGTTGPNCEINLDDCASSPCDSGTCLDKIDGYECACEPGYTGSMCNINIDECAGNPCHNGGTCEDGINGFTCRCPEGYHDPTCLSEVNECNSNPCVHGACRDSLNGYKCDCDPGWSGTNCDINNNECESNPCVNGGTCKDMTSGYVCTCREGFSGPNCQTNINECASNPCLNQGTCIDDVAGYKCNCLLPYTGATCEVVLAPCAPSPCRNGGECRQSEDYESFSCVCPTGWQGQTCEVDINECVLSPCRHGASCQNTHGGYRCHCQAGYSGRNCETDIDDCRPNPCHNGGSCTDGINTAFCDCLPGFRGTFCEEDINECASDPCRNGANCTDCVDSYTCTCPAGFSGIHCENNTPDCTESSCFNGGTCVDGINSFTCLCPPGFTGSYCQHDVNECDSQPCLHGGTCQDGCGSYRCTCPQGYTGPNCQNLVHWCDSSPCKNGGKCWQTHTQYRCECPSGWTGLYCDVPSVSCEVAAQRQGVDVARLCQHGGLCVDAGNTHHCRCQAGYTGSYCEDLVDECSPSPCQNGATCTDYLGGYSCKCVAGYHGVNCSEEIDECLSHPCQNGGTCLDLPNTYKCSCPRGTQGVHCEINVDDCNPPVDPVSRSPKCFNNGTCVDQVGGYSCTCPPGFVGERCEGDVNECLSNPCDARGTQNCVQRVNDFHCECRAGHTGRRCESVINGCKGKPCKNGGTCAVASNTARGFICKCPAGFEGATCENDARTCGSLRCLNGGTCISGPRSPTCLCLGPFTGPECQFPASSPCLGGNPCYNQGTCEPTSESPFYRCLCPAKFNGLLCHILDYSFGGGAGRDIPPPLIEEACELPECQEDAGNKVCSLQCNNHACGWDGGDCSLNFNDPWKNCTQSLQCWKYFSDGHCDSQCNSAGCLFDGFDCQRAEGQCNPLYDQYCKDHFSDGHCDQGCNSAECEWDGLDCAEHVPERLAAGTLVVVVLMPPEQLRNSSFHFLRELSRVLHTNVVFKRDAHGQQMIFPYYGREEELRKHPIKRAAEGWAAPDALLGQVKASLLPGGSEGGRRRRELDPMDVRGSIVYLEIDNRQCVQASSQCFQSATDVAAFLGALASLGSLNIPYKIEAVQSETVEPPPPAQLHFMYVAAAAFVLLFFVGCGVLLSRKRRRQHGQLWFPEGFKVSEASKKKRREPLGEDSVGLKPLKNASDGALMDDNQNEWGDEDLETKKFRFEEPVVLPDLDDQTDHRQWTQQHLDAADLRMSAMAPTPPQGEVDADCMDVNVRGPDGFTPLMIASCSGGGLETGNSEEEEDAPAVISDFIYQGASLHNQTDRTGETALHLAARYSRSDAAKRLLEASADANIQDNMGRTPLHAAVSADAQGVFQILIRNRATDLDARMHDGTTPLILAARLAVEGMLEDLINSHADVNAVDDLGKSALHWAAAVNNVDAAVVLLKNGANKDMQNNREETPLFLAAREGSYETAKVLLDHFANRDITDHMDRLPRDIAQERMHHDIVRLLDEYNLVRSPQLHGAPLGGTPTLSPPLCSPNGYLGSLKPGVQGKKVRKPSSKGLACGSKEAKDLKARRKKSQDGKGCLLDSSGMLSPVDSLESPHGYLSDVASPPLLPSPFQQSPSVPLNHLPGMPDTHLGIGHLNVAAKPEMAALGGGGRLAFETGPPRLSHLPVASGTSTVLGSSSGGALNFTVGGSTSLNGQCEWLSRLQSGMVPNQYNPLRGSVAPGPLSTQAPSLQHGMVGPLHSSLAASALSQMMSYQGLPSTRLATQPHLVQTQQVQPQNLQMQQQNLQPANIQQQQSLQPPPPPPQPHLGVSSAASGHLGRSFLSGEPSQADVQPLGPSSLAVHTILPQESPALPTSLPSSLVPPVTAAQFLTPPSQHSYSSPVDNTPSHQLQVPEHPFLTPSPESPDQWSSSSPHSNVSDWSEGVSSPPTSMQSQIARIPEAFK
# Sequence of Notch1 on U2OS hNotch1-Gal4 luciferase reporter cells (P46531 19-2555): as the sequence (P46531 19-2555 limits assumed) above
# Sequence of Notch2 on U2OS Notch2-Gal4 luciferase reporter cells (Q04721 26-2471): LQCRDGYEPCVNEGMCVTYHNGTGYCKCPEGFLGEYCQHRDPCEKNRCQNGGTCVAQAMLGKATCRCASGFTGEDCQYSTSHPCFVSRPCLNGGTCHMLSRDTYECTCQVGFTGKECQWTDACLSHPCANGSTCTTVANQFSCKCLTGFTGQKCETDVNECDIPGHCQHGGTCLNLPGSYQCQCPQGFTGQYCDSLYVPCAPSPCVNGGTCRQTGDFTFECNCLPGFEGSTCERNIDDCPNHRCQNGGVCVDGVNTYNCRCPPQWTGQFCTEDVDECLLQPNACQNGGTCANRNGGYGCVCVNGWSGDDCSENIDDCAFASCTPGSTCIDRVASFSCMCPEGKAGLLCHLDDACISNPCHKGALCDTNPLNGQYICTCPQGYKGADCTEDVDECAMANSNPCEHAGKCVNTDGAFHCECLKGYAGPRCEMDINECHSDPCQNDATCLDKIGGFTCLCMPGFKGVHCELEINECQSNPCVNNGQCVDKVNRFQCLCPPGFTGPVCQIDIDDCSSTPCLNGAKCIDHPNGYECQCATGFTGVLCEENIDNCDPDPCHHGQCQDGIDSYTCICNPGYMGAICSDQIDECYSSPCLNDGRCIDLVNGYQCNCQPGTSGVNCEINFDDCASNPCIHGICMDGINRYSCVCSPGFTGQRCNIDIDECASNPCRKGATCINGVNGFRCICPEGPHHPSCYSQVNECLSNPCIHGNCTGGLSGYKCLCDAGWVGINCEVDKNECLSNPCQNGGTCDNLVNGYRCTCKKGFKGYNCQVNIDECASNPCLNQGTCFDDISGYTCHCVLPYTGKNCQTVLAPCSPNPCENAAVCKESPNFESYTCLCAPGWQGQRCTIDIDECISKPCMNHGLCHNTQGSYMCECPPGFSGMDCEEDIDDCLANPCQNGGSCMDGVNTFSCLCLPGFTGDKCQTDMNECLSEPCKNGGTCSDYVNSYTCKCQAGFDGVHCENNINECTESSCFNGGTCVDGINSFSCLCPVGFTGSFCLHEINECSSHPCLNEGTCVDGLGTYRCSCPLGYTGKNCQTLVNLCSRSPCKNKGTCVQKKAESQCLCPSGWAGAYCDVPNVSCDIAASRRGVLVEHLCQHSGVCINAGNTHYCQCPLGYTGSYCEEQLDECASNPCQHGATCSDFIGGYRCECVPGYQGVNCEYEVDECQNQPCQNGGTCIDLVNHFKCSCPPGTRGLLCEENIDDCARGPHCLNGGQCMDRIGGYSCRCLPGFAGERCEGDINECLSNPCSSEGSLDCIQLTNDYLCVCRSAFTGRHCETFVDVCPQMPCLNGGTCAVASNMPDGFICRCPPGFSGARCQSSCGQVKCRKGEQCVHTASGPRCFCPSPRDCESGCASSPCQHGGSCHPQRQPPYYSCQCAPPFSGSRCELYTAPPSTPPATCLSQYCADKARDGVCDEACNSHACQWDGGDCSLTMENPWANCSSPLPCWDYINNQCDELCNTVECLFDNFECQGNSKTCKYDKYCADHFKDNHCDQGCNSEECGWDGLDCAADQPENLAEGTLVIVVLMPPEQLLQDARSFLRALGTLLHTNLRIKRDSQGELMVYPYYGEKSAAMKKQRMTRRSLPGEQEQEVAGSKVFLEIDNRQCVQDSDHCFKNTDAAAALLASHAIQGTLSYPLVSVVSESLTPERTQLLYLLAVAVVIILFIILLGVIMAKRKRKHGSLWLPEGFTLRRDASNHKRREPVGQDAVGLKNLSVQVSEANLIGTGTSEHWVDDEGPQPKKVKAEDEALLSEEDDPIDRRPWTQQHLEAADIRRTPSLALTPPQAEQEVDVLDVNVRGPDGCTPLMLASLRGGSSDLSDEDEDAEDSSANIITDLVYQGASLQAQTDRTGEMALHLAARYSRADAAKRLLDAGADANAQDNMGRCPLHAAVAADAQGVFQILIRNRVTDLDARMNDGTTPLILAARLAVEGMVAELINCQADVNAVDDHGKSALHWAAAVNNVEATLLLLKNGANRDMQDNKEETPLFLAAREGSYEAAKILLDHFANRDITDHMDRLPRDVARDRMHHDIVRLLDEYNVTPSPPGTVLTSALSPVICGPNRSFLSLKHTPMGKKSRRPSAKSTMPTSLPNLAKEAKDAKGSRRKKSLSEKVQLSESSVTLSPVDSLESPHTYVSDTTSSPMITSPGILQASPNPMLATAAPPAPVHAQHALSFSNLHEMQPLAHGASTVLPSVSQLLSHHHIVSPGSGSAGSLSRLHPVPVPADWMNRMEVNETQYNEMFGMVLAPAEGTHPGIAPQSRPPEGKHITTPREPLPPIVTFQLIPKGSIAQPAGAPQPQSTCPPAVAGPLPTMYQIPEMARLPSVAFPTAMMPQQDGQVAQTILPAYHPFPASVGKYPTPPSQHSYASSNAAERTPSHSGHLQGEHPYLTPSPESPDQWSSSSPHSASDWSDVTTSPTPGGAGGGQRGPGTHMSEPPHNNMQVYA
binder,measurement,setting,value
B1,"EC50 of Notch1 activation, fluorescent reporter cells, biotinylated ligand on streptavidin plates",[1],16 nM
B2,"EC50 of Notch1 activation, fluorescent reporter cells, biotinylated ligand on streptavidin plates",[1],1.7 nM
same,"Notch1 reporter activity with 25 µm coated beads, against DLL4 microbeads",[1],4.5 fold
same,"increase in Notch1 activation relative to control, Delta^MAX-coated streptavidin beads",[2],21 fold
same,"increase in Notch1 activation relative to control, oriented coupling on streptavidin plates",[2],50 fold
same,"luciferase reporter signalling at 50 nM immobilised ligand, against WT DLL4",[2],2 fold
same,"luciferase reporter signalling at 50 nM immobilised ligand, against WT DLL4",[3],2.5 fold
same,"luciferase reporter signalling at 50 nM immobilised ligand, against WT DLL4",[4],3 fold
same,fold increase of MFI compared to WT DLL4,[5],4.7 fold
B3,"EC50 of Notch1 activation, fluorescent reporter cells, ligand non-specifically adsorbed to plates",[1],2.3 ng/mm^2
B4,EC50 (read off the curve),[6],~100 nM
